According to patent US7335722 (FOOD INDUSTRY RESEARCH AND DEVELOPMENT INSTITUTE, dated 2008):

Target: T1, Angiotensin converting enzyme (ACE)
T1 sequence (F1RRW5 whole entry, species assumed, looked up): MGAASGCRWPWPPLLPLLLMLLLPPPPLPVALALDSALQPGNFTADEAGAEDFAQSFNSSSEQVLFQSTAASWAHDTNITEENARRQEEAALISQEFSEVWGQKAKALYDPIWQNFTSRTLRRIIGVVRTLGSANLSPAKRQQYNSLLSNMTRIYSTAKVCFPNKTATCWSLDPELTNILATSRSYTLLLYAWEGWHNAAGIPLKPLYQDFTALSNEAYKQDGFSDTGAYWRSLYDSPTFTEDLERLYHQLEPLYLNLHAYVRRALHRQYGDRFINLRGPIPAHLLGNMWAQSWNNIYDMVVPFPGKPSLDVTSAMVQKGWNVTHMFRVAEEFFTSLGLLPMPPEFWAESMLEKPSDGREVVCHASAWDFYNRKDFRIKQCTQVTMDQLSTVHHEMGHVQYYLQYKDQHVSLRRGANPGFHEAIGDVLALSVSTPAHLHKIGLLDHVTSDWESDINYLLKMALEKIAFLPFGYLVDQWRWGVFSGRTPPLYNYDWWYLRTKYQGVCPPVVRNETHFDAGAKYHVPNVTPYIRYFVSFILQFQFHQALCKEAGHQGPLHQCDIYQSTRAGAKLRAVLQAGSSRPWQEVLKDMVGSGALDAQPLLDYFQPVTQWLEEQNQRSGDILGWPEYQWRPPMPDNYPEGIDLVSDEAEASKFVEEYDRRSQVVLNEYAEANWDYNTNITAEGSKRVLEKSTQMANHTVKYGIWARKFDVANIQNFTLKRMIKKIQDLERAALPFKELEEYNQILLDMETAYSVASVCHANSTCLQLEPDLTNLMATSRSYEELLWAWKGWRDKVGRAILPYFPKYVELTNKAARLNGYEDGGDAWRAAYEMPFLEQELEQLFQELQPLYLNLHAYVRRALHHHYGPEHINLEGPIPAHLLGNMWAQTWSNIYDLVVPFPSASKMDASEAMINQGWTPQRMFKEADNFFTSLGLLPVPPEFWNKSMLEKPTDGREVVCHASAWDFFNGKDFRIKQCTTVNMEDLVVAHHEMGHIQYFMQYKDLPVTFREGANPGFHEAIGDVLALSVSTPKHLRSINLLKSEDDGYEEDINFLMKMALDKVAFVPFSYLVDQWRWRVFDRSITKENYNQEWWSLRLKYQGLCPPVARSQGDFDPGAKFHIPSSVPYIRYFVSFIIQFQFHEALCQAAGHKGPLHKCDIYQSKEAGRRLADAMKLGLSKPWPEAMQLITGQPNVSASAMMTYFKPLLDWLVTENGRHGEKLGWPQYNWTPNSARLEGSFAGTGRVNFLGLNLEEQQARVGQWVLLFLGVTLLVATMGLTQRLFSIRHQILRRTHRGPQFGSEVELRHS
Experiment: cell-based or functional assay

| Binder | ACE inhibitory activity (IC50) |
| --- | --- |
| VLPP [Val-Leu-Pro-Pro (VLPP)] | 97 µM |
| ILPP [Ile-Leu-Pro-Pro (ILPP)] | 172 µM |
